Source: US20240123068A1 (KITE PHARMA, published 2024)

Legend:
[1] = biological target: FITC-Labeled human CD19 protein (ACROBiosystem, Cat-CD9-HF251) (human) (UniProt P15391); experiment: flow cytometry, ND539 CAR T cells day 9; CD19-FITC protein premixed with anti-CD19 PE (FMC63 clone) 1:1; PE signal read on the cells that hold CD19-FITC by their CAR; competitor CD19 CAR 52 (untransduced 2.25)
[2] = biological target: FITC-Labeled human CD19 protein (ACROBiosystem, Cat-CD9-HF251) (human) (UniProt P15391); experiment: flow cytometry, ND539 CAR T cells day 9; CD19-FITC protein premixed with anti-CD19 PE (FMC63 clone) 1:3; PE signal read on the cells that hold CD19-FITC by their CAR; competitor CD19 CAR 42 (untransduced 2.95)
[3] = biological target: FITC-Labeled human CD19 protein (ACROBiosystem, Cat-CD9-HF251) (human) (UniProt P15391); experiment: flow cytometry, ND539 CAR T cells day 9; CD19-FITC protein premixed with anti-CD19 PE (FMC63 clone) 1:3; PE signal read on the cells that hold CD19-FITC by their CAR; competitor CD19 CAR 52 (untransduced 2.95)
[4] = biological target: FITC-Labeled human CD19 protein (ACROBiosystem, Cat-CD9-HF251) (human) (UniProt P15391); experiment: flow cytometry, ND539 CAR T cells day 9; CD19-FITC protein premixed with anti-CD19 PE (FMC63 clone) 1:3; PE signal read on the cells that hold CD19-FITC by their CAR; competitor CD19 CAR 45 (untransduced 2.95)
[5] = biological target: FITC-Labeled human CD19 protein (ACROBiosystem, Cat-CD9-HF251) (human) (UniProt P15391); experiment: flow cytometry, ND539 CAR T cells day 9; CD19-FITC protein premixed with anti-CD19 PE (FMC63 clone) 1:3; PE signal read on the cells that hold CD19-FITC by their CAR; competitor CD19 CAR 44 (untransduced 2.95)
[6] = biological target: FITC-Labeled human CD19 protein (ACROBiosystem, Cat-CD9-HF251) (human) (UniProt P15391); experiment: flow cytometry, ND539 CAR T cells day 9; CD19-FITC protein premixed with anti-CD19 PE (FMC63 clone) 1:1; PE signal read on the cells that hold CD19-FITC by their CAR; competitor CD19 CAR 44 (untransduced 2.25)
[7] = biological target: FITC-Labeled human CD19 protein (ACROBiosystem, Cat-CD9-HF251) (human) (UniProt P15391); experiment: flow cytometry, ND539 CAR T cells day 9; CD19-FITC protein premixed with anti-CD19 PE (FMC63 clone) 1:1; PE signal read on the cells that hold CD19-FITC by their CAR; competitor CD19 CAR 43 (untransduced 2.25)
[8] = biological target: FITC-Labeled human CD19 protein (ACROBiosystem, Cat-CD9-HF251) (human) (UniProt P15391); experiment: flow cytometry, ND539 CAR T cells day 9; CD19-FITC protein premixed with anti-CD19 PE (FMC63 clone) 1:3; PE signal read on the cells that hold CD19-FITC by their CAR; competitor CD19 CAR 46 (untransduced 2.95)
[9] = biological target: FITC-Labeled human CD19 protein (ACROBiosystem, Cat-CD9-HF251) (human) (UniProt P15391); experiment: flow cytometry, ND539 CAR T cells day 9; CD19-FITC protein premixed with anti-CD19 PE (FMC63 clone) 1:1; PE signal read on the cells that hold CD19-FITC by their CAR; competitor CD19 CAR 42 (untransduced 2.25)
[10] = biological target: FITC-Labeled human CD19 protein (ACROBiosystem, Cat-CD9-HF251) (human) (UniProt P15391); experiment: flow cytometry, ND539 CAR T cells day 9; CD19-FITC protein premixed with anti-CD19 PE (FMC63 clone) 1:1; PE signal read on the cells that hold CD19-FITC by their CAR; competitor CD19 CAR 45 (untransduced 2.25)
[11] = biological target: FITC-Labeled human CD19 protein (ACROBiosystem, Cat-CD9-HF251) (human) (UniProt P15391); experiment: flow cytometry, ND539 CAR T cells day 9; CD19-FITC protein premixed with anti-CD19 PE (FMC63 clone) 1:3; PE signal read on the cells that hold CD19-FITC by their CAR; competitor CAR-FMC63 (untransduced 2.95)
[12] = biological target: FITC-Labeled human CD19 protein (ACROBiosystem, Cat-CD9-HF251) (human) (UniProt P15391); experiment: flow cytometry, ND539 CAR T cells day 9; CD19-FITC protein premixed with anti-CD19 PE (FMC63 clone) 1:1; PE signal read on the cells that hold CD19-FITC by their CAR; competitor CD19 CAR 46 (untransduced 2.25)
[13] = biological target: FITC-Labeled human CD19 protein (ACROBiosystem, Cat-CD9-HF251) (human) (UniProt P15391); experiment: flow cytometry, ND539 CAR T cells day 9; CD19-FITC protein premixed with anti-CD19 PE (FMC63 clone) 1:1; PE signal read on the cells that hold CD19-FITC by their CAR; competitor CAR-FMC63 (untransduced 2.25)
[14] = biological target: FITC-Labeled human CD19 protein (ACROBiosystem, Cat-CD9-HF251) (human) (UniProt P15391); experiment: flow cytometry, ND539 CAR T cells day 9; CD19-FITC protein premixed with anti-CD19 PE (FMC63 clone) 1:3; PE signal read on the cells that hold CD19-FITC by their CAR; competitor CD19 CAR 43 (untransduced 2.95)
[15] = biological target: Human CD19, wild-type full-length protein expressed on cells (human) (UniProt P15391); experiment: high-throughput flow cytometry, HEK-293T cells with WT CD19 vs vector, at 0.25 ug/ml
[16] = biological target: Human CD19, wild-type full-length protein expressed on cells (human) (UniProt P15391); experiment: high-throughput flow cytometry, HEK-293T cells transfected with WT CD19; mean of four replicates; empty vector 0
[17] = biological target: FCGR1A (FCGR protein) of the membrane proteome array (human) (UniProt P12314); experiment: validation titration, flow cytometry on transfected HEK-293T cells
[18] = biological target: Protein A (positive assay control transfected into cells) (UniProt P38507); experiment: as above
[19] = biological target: T1, FITC-Labeled human CD19 protein (ACROBiosystem, Cat-CD9-HF251) (human, UniProt P15391 20-291, FITC label); experiment: flow cytometry, premixed CD19-FITC protein and anti-CD19 PE (FMC63 clone) 1:3; FITC gate; competitor anti-CD19 PE (untransduced 0.21)
T1 construct: The text calls the same reagent CD19-FITC and CD19-GFP; also called CD19-FITC protein; CD19-FTC protein
T1 sequence (looked up): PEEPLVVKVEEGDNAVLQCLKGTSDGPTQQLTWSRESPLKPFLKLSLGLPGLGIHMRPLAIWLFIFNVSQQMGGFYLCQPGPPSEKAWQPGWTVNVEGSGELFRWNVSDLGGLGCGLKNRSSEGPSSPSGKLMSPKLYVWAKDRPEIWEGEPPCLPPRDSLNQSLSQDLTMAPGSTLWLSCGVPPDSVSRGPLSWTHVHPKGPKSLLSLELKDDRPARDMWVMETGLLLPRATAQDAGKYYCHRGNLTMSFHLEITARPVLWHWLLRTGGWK
Protocol: (§1) In the second set of assays, CAR T cells were co-incubated with the CD19-FTC protein and the anti-CD19 PE (FMC63 clones) at 1:1 or 1:3 ratio for 15 minutes. The CAR T cells were then stained and incubated for 20 minutes before imaging by flow cytometry. […] The CAR T cells were gated for anti-CD19 PE (anti-FMC63 antibody; idiotype antibody binding) and the CD19 binder CAR binder FITC (CD19-GFP detection).

[20] = biological target: T2, Human CD19, wild-type full-length protein expressed on cells (human, UniProt P15391 20-556); experiment: cell-based or functional assay
T2 sequence: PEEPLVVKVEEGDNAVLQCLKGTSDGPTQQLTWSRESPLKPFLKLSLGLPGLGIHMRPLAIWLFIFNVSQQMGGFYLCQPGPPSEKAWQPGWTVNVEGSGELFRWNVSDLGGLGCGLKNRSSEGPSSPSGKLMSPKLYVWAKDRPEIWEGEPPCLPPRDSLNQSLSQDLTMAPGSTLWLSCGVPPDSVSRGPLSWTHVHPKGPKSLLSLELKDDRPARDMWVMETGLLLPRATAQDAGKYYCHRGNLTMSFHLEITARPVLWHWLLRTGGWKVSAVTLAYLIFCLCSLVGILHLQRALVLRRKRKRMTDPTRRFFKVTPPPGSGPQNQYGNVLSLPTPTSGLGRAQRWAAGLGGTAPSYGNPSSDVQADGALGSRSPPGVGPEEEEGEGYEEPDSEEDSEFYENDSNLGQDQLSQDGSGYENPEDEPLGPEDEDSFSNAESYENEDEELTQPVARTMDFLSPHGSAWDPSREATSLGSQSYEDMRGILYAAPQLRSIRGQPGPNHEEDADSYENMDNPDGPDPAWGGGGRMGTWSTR

[21] = biological target: T1, FITC-Labeled human CD19 protein …; experiment: flow cytometry, premixed CD19-FITC protein and anti-CD19 PE (FMC63 clone) 1:1; FITC gate; competitor anti-CD19 PE (untransduced 0.21)
Protocol: as §1

[22] = biological target: T1, FITC-Labeled human CD19 protein …; experiment: flow cytometry, ND539 CAR T cells day 9, CD19-FITC protein only (untransduced 0.85)
Protocol: At day 9 (D9) post-transduction, frozen ND539 CAR T cells were incubated with a fluorescently labeled recombinant CD19 protein. The CD19 CAR T cells were then analyzed by flow cytometry to determine the binding of the recombinant molecules to the CD19 CAR T cells. ND539 CAR T cells expressing a CAR comprising a FMC63 binder were used as control. Flow was gated for CD19 binder CAR.

[23] = biological target: T1, FITC-Labeled human CD19 protein …; experiment: flow cytometry, CD19-FITC protein added after anti-FMC63 Ab PE; FITC gate; competitor anti-FMC63 Ab (untransduced 0.86)
Protocol: To determine whether the anti-FMC63 antibody and the CD19 binders could bind the same region on the CD19 protein, competitive assays were performed. In the first set of experiments, the CD19 CAR T cells were first incubated with 1 ul of anti-FMC63 antibody PE for 20 minutes. After the incubation period, 2 ul of the CD19-FITC protein was added to the CAR T cells, which were further incubated for another 20 minutes. The CAR T cells were washed and assessed by Flow cytometry. The CAR T cells were gated for anti-FMC63 antibody (idiotype antibody binding) and the CD19 CAR binders (CD19-GFP detection).

Sequence of FCGR1A (FCGR protein) of the membrane proteome array (human) (P12314 16-374): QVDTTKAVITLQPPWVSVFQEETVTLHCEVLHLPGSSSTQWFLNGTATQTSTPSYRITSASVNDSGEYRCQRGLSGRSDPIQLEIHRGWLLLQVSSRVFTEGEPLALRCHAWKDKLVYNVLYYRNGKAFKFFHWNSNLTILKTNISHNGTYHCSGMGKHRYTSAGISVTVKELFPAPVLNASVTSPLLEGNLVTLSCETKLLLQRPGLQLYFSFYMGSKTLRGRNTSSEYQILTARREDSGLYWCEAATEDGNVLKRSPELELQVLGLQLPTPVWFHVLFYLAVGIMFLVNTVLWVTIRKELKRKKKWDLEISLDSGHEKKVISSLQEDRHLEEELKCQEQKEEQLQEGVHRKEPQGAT

## Anti CD19 (FMC63 Clone)-PE (antibody)
[1]
  Gated for Anti-CD19 PE Expression: 3.29 mfi
[2]
  Gated for Anti-CD19 PE Expression: 0.48 mfi
[3]
  Gated for Anti-CD19 PE Expression: 2.35 mfi
[4]
  Gated for Anti-CD19 PE Expression: 18.1 mfi
[5]
  Gated for Anti-CD19 PE Expression: 1.26 mfi
[6]
  Gated for Anti-CD19 PE Expression: 1.73 mfi
[7]
  Gated for Anti-CD19 PE Expression: 0.041 mfi
[8]
  Gated for Anti-CD19 PE Expression: 0.78 mfi
[9]
  Gated for Anti-CD19 PE Expression: 0.045 mfi
[10]
  Gated for Anti-CD19 PE Expression: 15.9 mfi
[11]
  Gated for Anti-CD19 PE Expression: 1.63 mfi
[12]
  Gated for Anti-CD19 PE Expression: 0.12 mfi
[13]
  Gated for Anti-CD19 PE Expression: 0.8 mfi
[14]
  Gated for Anti-CD19 PE Expression: 0.97 mfi

## HIB19 monoclonal antibody (BioLegend, Cat no. 302202)
[15]
  Signal:Background: 50
[16]
  mfi at 0.125 ug/ml: 500000 mfi
  mfi at 0.250 ug/ml: 750000 mfi
  mfi at 0.500 ug/ml: 1.25e+06 mfi
  mfi at 1.000 ug/ml: 1.75e+06 mfi
  mfi at 2.000 ug/ml: 1.75e+06 mfi
  mfi at 4.000 ug/ml: 2e+06 mfi

## isotype control article (Example 13)
[17]
  MFI signal, fold above negative control: > 45 fold
[18]
  MFI signal, fold above negative control: > 190 fold

B1: CD19 CAR comprising CD19 binder 52 (anti-CD19 scFv-BBz CAR) on T cells (other)
chain: QSVLTQPPSVSGAPGQRVTISCTGSSSNIGAGYDVHWYQQLPGTAPKLLIYGTKNRPSGVPDRFSGSKSGTSASLAITGLQAEDEADYYCQSYDVRLKGWVFGGGTKLTVLGGGGSGGGGSGGGGSQLQLQESGPGLVKPSETLSLTCTVSGGSITSSSYYWGWIRQPPGKGLEWIGSIYYTGTTYYNPSLKSRVTISVDTSKNQFSLKLSSVTAADTAVYYCARYVGLSGGFDYWGQGTLVTVSSTTTPAPRPPTPAPTIASQPLSLRPEACRPAAGGAVHTRGLDFACDIYIWAPLAGTCGVLLLSLVITLYCKRGRKKLLYIFKQPFMRPVQTTQEEDGCSCRFPEEEEGGCELRVKFSRSADAPAYKQGQNQLYNELNLGRREEYDVLDKRRGRDPEMGGKPRRKNPQEGLYNELQKDKMAEAYSEIGMKGERRRGKGHDGLYQGLSTATKDTYDALHMQALPPR
notes: also called CD19-52 CAR
[19]
  Gated for CD19-CAR-FITC expression: 5.56 mfi
[20]
  IL-2 & TNF-α, intracellular cytokine staining, Nalm6 stimulation, ND608 CAR T cells day 9: 37%
  IL-2, intracellular cytokine staining, Nalm6 stimulation, ND608 CAR T cells day 9: 1.06%
  TNF-α, intracellular cytokine staining, Nalm6 stimulation, ND608 CAR T cells day 9: 36.1%
[21]
  Gated for CD19-CAR-FITC expression: 14.5 mfi
[22]
  Gated for CD19-CAR expression: 30.4 mfi
[23]
  Gated for CD19 CAR Expression: 20.1 mfi

B2: CD19 CAR comprising CD19 binder 45 (anti-CD19 scFv-BBz CAR) on T cells (other)
chain: DIQMTQSPSSLSASVGDRVTITCRASQDITRYLNWYQQKPGKAPKLLIYAASSLQSGVPSRFSGSGSGTDFTLTISSLQPEDFATYYCQQSYSYPPTFGQGTKVEIKGGGGSGGGGSGGGGSQVQLVESGGGVVQPGRSLRLSCAASGFTFRDYGMHWVRQAPGKGLEWVAVISYEGSNEYYADSVKGRFTISRDNSKNTLYLQMNSLRAEDTAVYYCARDRGFAGWYDYAFDPWGQGTLVTVSSTTTPAPRPPTPAPTIASQPLSLRPEACRPAAGGAVHTRGLDFACDIYIWAPLAGTCGVLLLSLVITLYCKRGRKKLLYIFKQPFMRPVQTTQEEDGCSCRFPEEEEGGCELRVKFSRSADAPAYKQGQNQLYNELNLGRREEYDVLDKRRGRDPEMGGKPRRKNPQEGLYNELQKDKMAEAYSEIGMKGERRRGKGHDGLYQGLSTATKDTYDALHMQALPPR
notes: also called CD19-45 CAR; 45 original
[19]
  Gated for CD19-CAR-FITC expression: 4.76 mfi
[20]
  IL-2 & TNF-α, intracellular cytokine staining, Nalm6 stimulation, ND608 CAR T cells day 9: 28.1%
  IL-2, intracellular cytokine staining, Nalm6 stimulation, ND608 CAR T cells day 9: 1.16%
  TNF-α, intracellular cytokine staining, Nalm6 stimulation, ND608 CAR T cells day 9: 25.2%
[21]
  Gated for CD19-CAR-FITC expression: 9.64 mfi
[22]
  Gated for CD19-CAR expression: 23.1 mfi
[23]
  Gated for CD19 CAR Expression: 17.7 mfi
